Source: the supplement of paper PMC10724198
± gives the standard deviation of the averaged measurements.

Key:
[1] = tested on: Saccharomyces cerevisiae; assay: protein stability index of tFT-peptide fusion (C-terminal peptide) (PSI (0-1 scale)); higher = more stable (slower turnover); details: genetic background: wild type; temperature: 30 C
[2] = tested on: Saccharomyces cerevisiae; assay: as above
Procedure: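 MPS profiling in S. cerevisiae of the tFT-X12 degron library: putative degron peptides plus stable controls, 12 aa, fused to the C-terminus of a sfGFP-mCherry timer. Cells are FACS-sorted into 8 mCherry/sfGFP bins and deep-sequenced. PSI runs from 0 (unstable) to 1 (stable). Backgrounds are wild type, das1Δ and doa10Δ at 30 °C, and wild type, das1Δ, cdc34-1 and cdc53-1 at 37 °C; 2-3 technical replicates each.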

[3] = genetic background: cdc34-1, temperature: 37 C
[4] = genetic background: cdc53-1, temperature: 37 C
[5] = genetic background: das1 deletion, temperature: 30 C
[6] = genetic background: das1 deletion, temperature: 37 C
[7] = genetic background: doa10 deletion, temperature: 30 C
[8] = genetic background: wild type, temperature: 30 C
[9] = genetic background: wild type, temperature: 37 C
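Further: PSI is a weighted mean of sequencing reads over stability bins, variants kept only with over 10 reads, mCherry proximal and sfGFP distal, peptide attached via GGGS linker.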

Row | Sequence | protein stability index [1] | protein stability index [2, 3] | protein stability index [2, 4] | protein stability index [2, 5] | protein stability index [2, 6] | protein stability index [2, 7] | protein stability index [2, 8] | protein stability index [2, 9]
1 | KKKTKYSKDKLC | 0.343 ± 0.035 | 0.607 ± 0.03 | 0.696 ± 0.025 | 0.662 ± 0.036 | 0.723 ± 0.021 | 0.191 ± 0.028 | 0.217 ± 0.013 | 0.456 ± 0.04
2 | KKTKKTMIIKTT | 0.463 ± 0.0091 | 0.693 ± 0.066 | 0.706 ± 0.027 | 0.6314 ± 0.005 | 0.745 ± 0.0037 | 0.33 ± 0.021 | 0.369 ± 0.04 | 0.6051 ± 0.0008
3 | KLKLWSIIKNNA | 0.385 ± 0.03 | 0.686 ± 0.06 | 0.749 ± 0.021 | 0.658 ± 0.022 | 0.745 ± 0.015 | 0.181 ± 0.008 | 0.25 ± 0.05 | 0.484 ± 0.053
4 | KLMGWFVGVVAR | 0.442 ± 0.015 | 0.494 ± 0.0073 | 0.49 ± 0.019 | 0.355 ± 0.025 | 0.535 ± 0.011 | 0.323 ± 0.0045 | 0.351 ± 0.039 | 0.517 ± 0.033
5 | KLVFLLCLNKVF | 0.243 ± 0.037 | 0.51474 ± 0.00047 | 0.5887 ± 0.0014 | 0.439 ± 0.017 | 0.63 ± 0.0047 | 0.173 ± 0.018 | 0.199 ± 0.013 | 0.29 ± 0.0089
6 | KRKKHKRKLVIC | 0.265 ± 0.043 | 0.611 ± 0.03 | 0.674 ± 0.025 | 0.612 ± 0.012 | 0.732 ± 0.012 | 0.14 ± 0.027 | 0.154 ± 0.045 | 0.148 ± 0.05
7 | KRSPPPATPSSG | 0.24 ± 0.034 | 0.6827 ± 0.0047 | 0.73 ± 0.013 | 0.631 ± 0.025 | 0.76 ± 0.043 | 0.6035 ± 0.0057 | 0.623 ± 0.0081 | 0.704 ± 0.012
8 | KSARLYVTSFLC | 0.194 ± 0.0022 | 0.571 ± 0.0067 | 0.682 ± 0.035 | 0.623 ± 0.012 | 0.739 ± 0.023 | 0.107 ± 0.012 | 0.123 ± 0.0064 | 0.179 ± 0.02
9 | KTRQLINKITQM | 0.254 ± 0.072 | 0.6601 ± 0.00086 | 0.693 ± 0.019 | 0.62 ± 0.018 | 0.7358 ± 0.0036 | 0.137 ± 0.024 | 0.153 ± 0.031 | 0.288 ± 0.031
10 | KYCPCIPLLIAL | 0.429 ± 0.0047 | 0.406 ± 0.0064 | 0.381 ± 0.012 | 0.339 ± 0.036 | 0.5 ± 0.012 | 0.387 ± 0.013 | 0.329 ± 0.033 | 0.443 ± 0.012
11 | LAVRSGFPFGLF | 0.249 ± 0.0026 | 0.642 ± 0.034 | 0.757 ± 0.013 | 0.674 ± 0.012 | 0.783 ± 0.036 | 0.117 ± 0.017 | 0.122 ± 0.03 | 0.224 ± 0.014
12 | LCLLHCSICISF | 0.388 ± 0.014 | 0.352 ± 0.026 | 0.4113 ± 0.0012 | 0.301 ± 0.027 | 0.44881 ± 0.00028 | 0.285 ± 0.015 | 0.295 ± 0.036 | 0.4142 ± 0.0008
13 | LCLLIHFWISHL | 0.244 ± 0.023 | 0.302 ± 0.0069 | 0.44 ± 0.009 | 0.295 ± 0.028 | 0.43 ± 0.019 | 0.167 ± 0.0048 | 0.173 ± 0.013 | 0.2932 ± 0.0011
14 | LCVFFRCFFVGG | 0.514 ± 0.028 | 0.529 ± 0.046 | 0.588 ± 0.022 | 0.457 ± 0.015 | 0.608 ± 0.0094 | 0.433 ± 0.017 | 0.448 ± 0.018 | 0.5722 ± 0.0043
15 | LCWRLCRFWWVG | 0.363 ± 0.016 | 0.75 ± 0.068 | 0.8494 ± 0.0062 | 0.691 ± 0.033 | 0.829 ± 0.014 | 0.255 ± 0.0076 | 0.254 ± 0.024 | 0.424 ± 0.013
16 | LDHGRVVWVVVS | 0.278 ± 0.022 | 0.371 ± 0.036 | 0.43 ± 0.021 | 0.3 ± 0.034 | 0.493 ± 0.0092 | 0.174 ± 0.011 | 0.201 ± 0.023 | 0.284 ± 0.008
17 | LDRLTTWTLIVR | 0.471 ± 0.031 | 0.457 ± 0.031 | 0.455 ± 0.011 | 0.379 ± 0.026 | 0.524 ± 0.0076 | 0.413 ± 0.0057 | 0.365 ± 0.021 | 0.482 ± 0.0083
18 | LERLHSVLLLTS | 0.284 ± 0.021 | 0.246 ± 0.0054 | 0.254 ± 0.0079 | 0.223 ± 0.036 | 0.379 ± 0.0057 | 0.165 ± 0.019 | 0.217 ± 0.027 | 0.324 ± 0.011
19 | LFFLPPCYWFLL | 0.489 ± 0.019 | 0.665 ± 0.023 | 0.773 ± 0.024 | 0.5834 ± 0.0043 | 0.732 ± 0.049 | 0.384 ± 0.034 | 0.392 ± 0.03 | 0.571 ± 0.013
20 | LFFWWVAVVFRV | 0.23 ± 0.038 | 0.0928 ± 0.025 | 0.0916 ± 0.006 | 0.156 ± 0.049 | 0.236 ± 0.029 | 0.204 ± 0.016 | 0.133 ± 0.02 | 0.189 ± 0.014

Row | Sequence | protein stability index [1] | protein stability index [2, 3] | protein stability index [2, 4] | protein stability index [2, 5] | protein stability index [2, 6] | protein stability index [2, 7] | protein stability index [2, 8] | protein stability index [2, 9]
21 | LFLVFIGLFFLT | 0.413 ± 0.012 | 0.348 ± 0.011 | 0.429 ± 0.035 | 0.359 ± 0.061 | 0.46 ± 0.011 | 0.338 ± 0.011 | 0.327 ± 0.015 | 0.441 ± 0.01
22 | LFRFSRLFLFVL | 0.207 ± 0.061 | 0.36 ± 0.034 | 0.446 ± 0.11 | 0.578 ± 0.0093 | 0.74 ± 0.028 | 0.214 ± 0.042 | 0.153 ± 0.034 | 0.201 ± 0.017
23 | LFRRMWVEIFYV | 0.253 ± 0.046 | 0.439 ± 0.044 | 0.541 ± 0.043 | 0.423 ± 0.029 | 0.566 ± 0.015 | 0.0969 ± 0.016 | 0.119 ± 0.0081 | 0.155 ± 0.021
24 | LGKSTLYMALNN | 0.402 ± 0.047 | 0.587 ± 0.057 | 0.716 ± 0.036 | 0.611 ± 0.011 | 0.695 ± 0.017 | 0.273 ± 0.013 | 0.309 ± 0.038 | 0.571 ± 0.11
25 | LGVLVVCFNATY | 0.354 ± 0.013 | 0.24 ± 0.0032 | 0.343 ± 0.0057 | 0.27 ± 0.014 | 0.42063 ± 0.00021 | 0.2506 ± 0.00074 | 0.264 ± 0.02 | 0.376 ± 0.017
26 | LHLTFRLAVLYY | 0.338 ± 0.032 | 0.3205 ± 0.002 | 0.355 ± 0.0097 | 0.293 ± 0.037 | 0.395 ± 0.03 | 0.317 ± 0.029 | 0.275 ± 0.021 | 0.371 ± 0.039
27 | LIIVFGFTSILR | 0.419 ± 0.093 | 0.441 ± 0.02 | 0.572 ± 0.018 | 0.36 ± 0.043 | 0.526 ± 0.018 | 0.355 ± 0.015 | 0.328 ± 0.037 | 0.509 ± 0.048
28 | LIPFPGFFILLT | 0.436 ± 0.0094 | 0.244 ± 0.021 | 0.13 ± 0.0096 | 0.277 ± 0.021 | 0.37 ± 0.046 | 0.49 ± 0.023 | 0.28 ± 0.05 | 0.315 ± 0.054
29 | LISRGNRALFCI | 0.314 ± 0.02 | 0.678 ± 0.044 | 0.739 ± 0.013 | 0.589 ± 0.017 | 0.755 ± 0.029 | 0.204 ± 0.015 | 0.224 ± 0.03 | 0.482 ± 0.016
30 | LLAREILVIVAV | 0.307 ± 0.0051 | 0.181 ± 0.0035 | 0.229 ± 0.017 | 0.207 ± 0.032 | 0.32 ± 0.017 | 0.166 ± 0.0048 | 0.204 ± 0.015 | 0.271 ± 0.0034
31 | LLCLAVVLWFVV | 0.307 ± 0.03 | 0.216 ± 0.035 | 0.338 ± 0.019 | 0.239 ± 0.031 | 0.4051 ± 0.0011 | 0.212 ± 0.012 | 0.241 ± 0.024 | 0.3362 ± 0.0005
32 | LLCSPPPLTVPA | 0.454 ± 0.025 | 0.394 ± 0.044 | 0.4424 ± 0.00065 | 0.324 ± 0.045 | 0.478 ± 0.017 | 0.275 ± 0.0087 | 0.327 ± 0.034 | 0.44 ± 0.0091
33 | LLFVLWLSFFVL | 0.346 ± 0.031 | 0.3135 ± 0.0016 | 0.384 ± 0.074 | 0.272 ± 0.03 | 0.449 ± 0.012 | 0.239 ± 0.0027 | 0.247 ± 0.034 | 0.382 ± 0.04
34 | LLGDFAVLTCVF | 0.453 ± 0.0086 | 0.468 ± 0.049 | 0.496 ± 0.039 | 0.372 ± 0.024 | 0.4825 ± 0.0011 | 0.343 ± 0.0054 | 0.377 ± 0.027 | 0.465 ± 0.022
35 | LLGGFAAFWRIL | 0.226 ± 0.06 | 0.631 ± 0.061 | 0.713 ± 0.0012 | 0.618 ± 0.012 | 0.753 ± 0.014 | 0.135 ± 0.015 | 0.15 ± 0.02 | 0.297 ± 0.026
36 | LLLFLHILRYVF | 0.414 ± 0.026 | 0.541 ± 0.026 | 0.551 ± 0.015 | 0.417 ± 0.028 | 0.581 ± 0.046 | 0.398 ± 0.025 | 0.368 ± 0.016 | 0.529 ± 0.088
37 | LLLFLHSTLTCR | 0.49 ± 0.011 | 0.474 ± 0.056 | 0.543 ± 0.01 | 0.408 ± 0.035 | 0.618 ± 0.018 | 0.383 ± 0.011 | 0.411 ± 0.02 | 0.558 ± 0.022
38 | LLLLASLFFRLA | 0.3 ± 0.016 | 0.522 ± 0.023 | 0.595 ± 0.01 | 0.467 ± 0.031 | 0.614 ± 0.03 | 0.177 ± 0.011 | 0.194 ± 0.015 | 0.37 ± 0.028
39 | LLLPVFLVFSVS | 0.326 ± 0.034 | 0.295 ± 0.046 | 0.417 ± 0.005 | 0.269 ± 0.037 | 0.482 ± 0.012 | 0.2258 ± 0.0016 | 0.256 ± 0.03 | 0.47 ± 0.058
